Laboratory results as given in the Immune Epitope Database (IEDB).

Tests used:
HLA-B*35:01 [1] = assay: IEDB peptide-MHC binding, purified MHC/competitive/radioactivity; ≥ and ≤ were set here for values at or beyond the usual limits of such assays
HLA-B*51:01 [2] = assay: as above
HLA-B*53:01 [3] = assay: as above
HLA-B*54:01 [4] = assay: as above
HLA-B*07:02 [5] = assay: IEDB peptide-MHC binding, purified MHC/competitive/radioactivity; filed as Kd, often an IC50 or EC50 that approximates it; ≥ and ≤ were set here for values at or beyond the usual limits of such assays
HLA-B*07:02 [6] = assay: IEDB peptide-MHC binding, purified MHC/competitive/radioactivity; ≥ and ≤ were set here for values at or beyond the usual limits of such assays
HLA-B*35:01 [7] = assay: IEDB peptide-MHC binding, purified MHC/competitive/radioactivity; filed as Kd, often an IC50 or EC50 that approximates it; ≥ and ≤ were set here for values at or beyond the usual limits of such assays
HLA-B*53:01 [8] = assay: as above
HLA-B*54:01 [9] = assay: as above
HLA-B*51:01 [10] = assay: as above
[11] = source organism: Human T-cell leukemia virus type I
[12] = source organism: human papillomavirus 18
[13] = source organism: human papillomavirus 11
[14] = source organism: Human T-cell lymphotrophic virus type 1 (Caribbean isolate)
[15] = source organism: Hepatitis C virus (isolate Taiwan)

LPFRNCPRF showed an IC50 (HLA-B*35:01 [1]; source organism: Homo sapiens) of 400 nM, an IC50 (HLA-B*51:01 [2]; source organism: Homo sapiens) of 14 nM and an IC50 (HLA-B*53:01 [3]; source organism: Homo sapiens) of 620 nM. It also gave an IC50 (HLA-B*54:01 [4]; source organism: Homo sapiens) of 270 nM and a Kd (HLA-B*07:02 [5]; source organism: Homo sapiens) of 1120 nM.

LPQPPICTI showed an IC50 (HLA-B*07:02 [6]; source organism: Homo sapiens) of 240 nM, an IC50 (HLA-B*51:01 [2]; source organism: Homo sapiens) of 4.3 nM and an IC50 (HLA-B*54:01 [4]; source organism: Homo sapiens) of 20 nM.

LPSIPVHPI showed an IC50 (HLA-B*07:02 [6]; source organism: Homo sapiens) of 68 nM, an IC50 (HLA-B*51:01 [2]; source organism: Homo sapiens) of 32 nM and an IC50 (HLA-B*53:01 [3]; source organism: Homo sapiens) of 465 nM. It also gave an IC50 (HLA-B*54:01 [4]; source organism: Homo sapiens) of 38 nM and a Kd (HLA-B*35:01 [7]; source organism: Homo sapiens) of 2940 nM.

In the case of LPSPACQLV, the IC50 (HLA-B*51:01 [2]; source organism: Homo sapiens) is reported as 8.2 nM, the IC50 (HLA-B*54:01 [4]; source organism: Homo sapiens) is reported as 217 nM and the Kd (HLA-B*07:02 [5]; source organism: Homo sapiens) is reported as 7860 nM. It also gave a Kd (HLA-B*35:01 [7]; source organism: Homo sapiens) of no less than 25000 nM and a Kd (HLA-B*53:01 [8]; source organism: Homo sapiens) of 7150 nM.

LPTNASLSF was tested, and the IC50 (HLA-B*35:01 [1]; source organism: Homo sapiens) was 115 nM, the IC50 (HLA-B*51:01 [2]; source organism: Homo sapiens) was 809 nM and the IC50 (HLA-B*53:01 [3]; source organism: Homo sapiens) was 34 nM. It also gave a Kd (HLA-B*54:01 [9]; source organism: Homo sapiens) of no less than 25000 nM.

With LPTTLFQPY the IC50 (HLA-B*07:02 [6]; [11]) was 423 nM, the IC50 (HLA-B*51:01 [2]; [11]) was 42 nM and the IC50 (HLA-B*54:01 [4]; [11]) was 0.83 nM. For the same sequence, the Kd (HLA-B*35:01 [7]; [11]) was 1560 nM and the Kd (HLA-B*53:01 [8]; [11]) was 11600 nM.

MPNQAQMRI showed an IC50 (HLA-B*07:02 [6]; source organism: Homo sapiens) of 600 nM, an IC50 (HLA-B*51:01 [2]; source organism: Homo sapiens) of 14 nM and an IC50 (HLA-B*53:01 [3]; source organism: Homo sapiens) of 20 nM. For the same sequence, the IC50 (HLA-B*54:01 [4]; source organism: Homo sapiens) was 424 nM and the Kd (HLA-B*35:01 [7]; source organism: Homo sapiens) was 1040 nM.

For MPREDAHFI, the IC50 (HLA-B*35:01 [1]; source organism: Homo sapiens) was 450 nM, the IC50 (HLA-B*51:01 [2]; source organism: Homo sapiens) was 0.46 nM and the IC50 (HLA-B*53:01 [3]; source organism: Homo sapiens) was 6.6 nM. It also gave an IC50 (HLA-B*54:01 [4]; source organism: Homo sapiens) of 294 nM.

With QPFILYAHI the IC50 (HLA-B*51:01 [2]; [12]) was 26 nM, the Kd (HLA-B*07:02 [5]; [12]) was no less than 25000 nM and the Kd (HLA-B*35:01 [7]; [12]) was no less than 25000 nM. The Kd (HLA-B*53:01 [8]; [12]) was 5470 nM and the Kd (HLA-B*54:01 [9]; [12]) was 2940 nM.

Sequence QPKKVKRRL has a Kd (HLA-B*07:02 [5]; [13]) of 2900 nM, a Kd (HLA-B*35:01 [7]; [13]) of no less than 25000 nM and a Kd (HLA-B*51:01 [10]; [13]) of 3240 nM. The Kd (HLA-B*53:01 [8]; [13]) was no less than 25000 nM and the Kd (HLA-B*54:01 [9]; [13]) was no less than 25000 nM.

SPATLLLVL gave an IC50 (HLA-B*07:02 [6]; source organism: Homo sapiens) of 10 nM, an IC50 (HLA-B*35:01 [1]; source organism: Homo sapiens) of 176 nM and an IC50 (HLA-B*51:01 [2]; source organism: Homo sapiens) of 162 nM. For the same sequence, the IC50 (HLA-B*53:01 [3]; source organism: Homo sapiens) was 23 nM and the Kd (HLA-B*54:01 [9]; source organism: Homo sapiens) was 12500 nM.

Sequence SPISNVANA has an IC50 (HLA-B*07:02 [6]; [13]) of 655 nM, an IC50 (HLA-B*54:01 [4]; [13]) of 56 nM and a Kd (HLA-B*35:01 [7]; [13]) of no less than 25000 nM. It also gave a Kd (HLA-B*51:01 [10]; [13]) of 5500 nM and a Kd (HLA-B*53:01 [8]; [13]) of no less than 25000 nM.

Sequence SPLGERLEV has an IC50 (HLA-B*07:02 [6]; [12]) of 42 nM, a Kd (HLA-B*35:01 [7]; [12]) of no less than 25000 nM and a Kd (HLA-B*51:01 [10]; [12]) of no less than 25000 nM. For the same sequence, the Kd (HLA-B*53:01 [8]; [12]) was no less than 25000 nM and the Kd (HLA-B*54:01 [9]; [12]) was 9090 nM.

Sequence SPSCPLERF has an IC50 (HLA-B*07:02 [6]; source organism: Homo sapiens) of 833 nM, an IC50 (HLA-B*35:01 [1]; source organism: Homo sapiens) of 379 nM and a Kd (HLA-B*51:01 [10]; source organism: Homo sapiens) of 1900 nM. The Kd (HLA-B*53:01 [8]; source organism: Homo sapiens) was 3440 nM and the Kd (HLA-B*54:01 [9]; source organism: Homo sapiens) was no less than 25000 nM.

With TPAEVSIVV the IC50 (HLA-B*51:01 [2]; source organism: Homo sapiens) was 39 nM, the IC50 (HLA-B*54:01 [4]; source organism: Homo sapiens) was 333 nM and the Kd (HLA-B*07:02 [5]; source organism: Homo sapiens) was 1530 nM. It also gave a Kd (HLA-B*35:01 [7]; source organism: Homo sapiens) of 2120 nM and a Kd (HLA-B*53:01 [8]; source organism: Homo sapiens) of 15500 nM.

VPLAHSSSA was tested, and the IC50 (HLA-B*07:02 [6]; source organism: Homo sapiens) was 172 nM, the IC50 (HLA-B*51:01 [2]; source organism: Homo sapiens) was 367 nM and the IC50 (HLA-B*54:01 [4]; source organism: Homo sapiens) was 23 nM. For the same sequence, the Kd (HLA-B*35:01 [7]; source organism: Homo sapiens) was no less than 25000 nM and the Kd (HLA-B*53:01 [8]; source organism: Homo sapiens) was no less than 25000 nM.

WPLLPHVIF was tested, and the IC50 (HLA-B*07:02 [6]; [14]) was 367 nM, the IC50 (HLA-B*35:01 [1]; [14]) was 180 nM and the IC50 (HLA-B*51:01 [2]; [14]) was 262 nM. For the same sequence, the IC50 (HLA-B*54:01 [4]; [14]) was 63 nM and the Kd (HLA-B*53:01 [8]; [14]) was 1010 nM.

In the case of YPCTVNFTI, the IC50 (HLA-B*51:01 [2]; [15]) is reported as 12 nM, the IC50 (HLA-B*53:01 [3]; [15]) is reported as 102 nM and the Kd (HLA-B*07:02 [5]; [15]) is reported as 10800 nM.
